# Test results taken from patent publication US20240117018A1.
# Tests used:
# Assay in all cases: cell-based or functional assay
# [1] = target: HIV-1 Env of pseudovirus CAP45.2.00.G3 (HIV-1)
# [2] = target: HIV-1 Env of pseudovirus Q842.d12 (HIV-1)
# [3] = target: HIV-1 Env of pseudovirus 6244_13_B5_4576 (HIV-1)
# [4] = target: HIV-1 Env of pseudovirus TRO.11 (HIV-1)
# [5] = target: HIV-1 Env of pseudovirus ZM53M.PB12 (HIV-1)
# [6] = target: HIV-1 Env of pseudovirus 6535.3 (HIV-1)
# [7] = target: HIV-1 Env of pseudovirus CNE30 (HIV-1)
# [8] = target: HIV-1 Env of pseudovirus ZM135M.PL10a (HIV-1)
# [9] = target: HIV-1 Env of pseudovirus MS208.A1 (HIV-1)
# [10] = target: HIV-1 Env of pseudovirus CNE52 (HIV-1)
# [11] = target: HIV-1 Env of pseudovirus CAAN5342.A2 (HIV-1)
# [12] = target: HIV-1 Env of pseudovirus PVO.4 (HIV-1)
# [13] = target: HIV-1 Env of pseudovirus SC05_8C11_2344 (HIV-1)
# [14] = target: HIV-1 Env of pseudovirus CNE53 (HIV-1)
# [15] = target: HIV-1 Env of pseudovirus Du422.1 (HIV-1)
# [16] = target: HIV-1 Env of pseudovirus 62357_14_D3_4589 (HIV-1)
# [17] = target: HIV-1 Env of pseudovirus AC10.0.29 (HIV-1)
# [18] = target: HIV-1 Env of pseudovirus ZM233M.PB6 (HIV-1)
# [19] = target: HIV-1 Env of pseudovirus 928-28 (HIV-1)
# [20] = target: HIV-1 Env of pseudovirus CNE19 (HIV-1)
# [21] = target: HIV-1 Env of pseudovirus WITO4160.33 (HIV-1)
# [22] = target: HIV-1 Env of pseudovirus Ce2010_F5 (HIV-1)
# [23] = target: HIV-1 Env of pseudovirus ZM247v1(Rev-) (HIV-1)
# [24] = target: HIV-1 Env of pseudovirus SC422661.8 (HIV-1)
# [25] = target: HIV-1 Env of pseudovirus ZM197M.PB7 (HIV-1)
# [26] = target: HIV-1 Env of pseudovirus CNE20 (HIV-1)
# [27] = target: HIV-1 Env of pseudovirus Q461.e2 (HIV-1)
# [28] = target: HIV-1 Env of pseudovirus Ce2060_G9 (HIV-1)
# [29] = target: HIV-1 Env of pseudovirus Q259.d2.17 (HIV-1)
# [30] = target: HIV-1 Env of pseudovirus Ce1172_H1 (HIV-1)
# [31] = target: HIV-1 Env of pseudovirus 191955_A11 (HIV-1)
# [32] = target: HIV-1 Env of pseudovirus CNE17 (HIV-1)
substance,measurement,setting,value
NIH 45-46 (antibody),IC50,[1],> 50 µg/mL
same,IC80,[1],> 50 µg/mL
same,IC50,[2],0.03 µg/mL
same,IC80,[2],0.03 µg/mL
same,IC50,[3],0.07 µg/mL
same,IC80,[3],0.26 µg/mL
same,IC50,[4],1.9 µg/mL
same,IC80,[4],9.56 µg/mL
same,IC50,[5],0.65 µg/mL
same,IC80,[5],0.65 µg/mL
same,IC50,[6],0.14 µg/mL
same,IC80,[6],0.28 µg/mL
same,IC50,[7],0.34 µg/mL
same,IC80,[7],1.48 µg/mL
same,IC50,[8],0.36 µg/mL
same,IC80,[8],3.11 µg/mL
same,IC50,[9],0.09 µg/mL
same,IC80,[9],0.6 µg/mL
same,IC50,[10],0.03 µg/mL
same,IC80,[10],0.12 µg/mL
same,IC50,[11],0.11 µg/mL
same,IC80,[11],0.33 µg/mL
same,IC50,[12],0.17 µg/mL
same,IC80,[12],0.47 µg/mL
same,IC50,[13],0.14 µg/mL
same,IC80,[13],0.38 µg/mL
same,IC50,[14],0.01 µg/mL
same,IC80,[14],0.04 µg/mL
same,IC50,[15],> 50 µg/mL
same,IC80,[15],> 50 µg/mL
same,IC50,[16],0.05 µg/mL
same,IC80,[16],0.22 µg/mL
same,IC50,[17],0.42 µg/mL
same,IC80,[17],1.49 µg/mL
same,IC50,[18],1.86 µg/mL
same,IC80,[18],16.5 µg/mL
same,IC50,[19],0.1 µg/mL
same,IC80,[19],0.39 µg/mL
same,IC50,[20],0.07 µg/mL
same,IC80,[20],0.37 µg/mL
same,IC50,[21],0.01 µg/mL
same,IC80,[21],0.08 µg/mL
same,IC50,[22],0.13 µg/mL
same,IC80,[22],0.43 µg/mL
same,IC50,[23],1.64 µg/mL
same,IC80,[23],> 50 µg/mL
same,IC50,[24],0.01 µg/mL
same,IC80,[24],0.07 µg/mL
same,IC50,[25],0.14 µg/mL
same,IC80,[25],0.64 µg/mL
same,IC50,[26],8.71 µg/mL
same,IC80,[26],47 µg/mL
same,IC50,[27],0.06 µg/mL
same,IC80,[27],0.32 µg/mL
same,IC50,[28],0.14 µg/mL
same,IC80,[28],0.48 µg/mL
same,IC50,[29],0.01 µg/mL
same,IC80,[29],0.06 µg/mL
same,IC50,[30],> 50 µg/mL
same,IC80,[30],> 50 µg/mL
same,IC50,[31],0.11 µg/mL
same,IC80,[31],0.43 µg/mL
same,IC50,[32],0.15 µg/mL
same,IC80,[32],0.55 µg/mL
